The target of this test is tyrosine kinase receptor MET on HeLa cells (UniProt P08581).
Sequence of tyrosine kinase receptor MET on HeLa cells (P08581 25-1390 limits assumed): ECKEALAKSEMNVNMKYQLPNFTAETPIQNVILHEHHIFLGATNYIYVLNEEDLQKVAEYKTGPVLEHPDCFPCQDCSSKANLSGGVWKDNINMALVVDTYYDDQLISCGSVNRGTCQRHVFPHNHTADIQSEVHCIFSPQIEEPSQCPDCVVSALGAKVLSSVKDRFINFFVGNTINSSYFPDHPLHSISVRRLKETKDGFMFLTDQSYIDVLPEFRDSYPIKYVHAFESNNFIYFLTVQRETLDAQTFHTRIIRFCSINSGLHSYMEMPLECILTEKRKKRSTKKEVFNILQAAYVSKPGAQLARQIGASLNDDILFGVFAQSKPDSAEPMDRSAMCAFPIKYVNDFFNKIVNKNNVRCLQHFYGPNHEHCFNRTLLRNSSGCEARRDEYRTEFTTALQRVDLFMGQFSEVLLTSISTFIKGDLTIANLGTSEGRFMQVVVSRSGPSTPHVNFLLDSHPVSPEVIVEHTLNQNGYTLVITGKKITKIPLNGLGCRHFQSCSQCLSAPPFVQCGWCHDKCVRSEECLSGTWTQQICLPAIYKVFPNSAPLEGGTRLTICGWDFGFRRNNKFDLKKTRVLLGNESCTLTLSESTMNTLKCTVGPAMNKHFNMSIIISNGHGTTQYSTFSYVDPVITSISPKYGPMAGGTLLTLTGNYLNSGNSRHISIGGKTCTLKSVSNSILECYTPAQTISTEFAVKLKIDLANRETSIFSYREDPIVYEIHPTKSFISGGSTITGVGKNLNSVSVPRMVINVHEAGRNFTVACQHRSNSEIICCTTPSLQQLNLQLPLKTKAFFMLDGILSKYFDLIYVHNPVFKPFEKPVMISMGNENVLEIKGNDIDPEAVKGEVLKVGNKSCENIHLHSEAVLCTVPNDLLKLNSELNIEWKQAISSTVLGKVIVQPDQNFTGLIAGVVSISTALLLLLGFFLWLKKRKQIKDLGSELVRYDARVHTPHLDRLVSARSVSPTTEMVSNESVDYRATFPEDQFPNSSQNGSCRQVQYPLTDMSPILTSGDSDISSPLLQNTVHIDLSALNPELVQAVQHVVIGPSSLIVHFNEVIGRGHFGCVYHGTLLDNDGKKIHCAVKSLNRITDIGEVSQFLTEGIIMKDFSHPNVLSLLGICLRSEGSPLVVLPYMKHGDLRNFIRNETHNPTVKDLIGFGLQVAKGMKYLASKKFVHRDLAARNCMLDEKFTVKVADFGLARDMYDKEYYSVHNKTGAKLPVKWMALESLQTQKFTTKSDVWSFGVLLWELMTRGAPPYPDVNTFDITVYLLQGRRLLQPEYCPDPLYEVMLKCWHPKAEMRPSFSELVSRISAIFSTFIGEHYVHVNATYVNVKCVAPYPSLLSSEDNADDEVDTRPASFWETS

The substance “Hepatocyte growth factor/scatter factor (HGF/SF) (from UniProt P14210 32-728) (ligand)” returned an EC50 (read off the curve), Akt phosphorylation (P-AKT) [P-AKT] of 0.03 nM and an EC50 (read off the curve), ERK phosphorylation (P-ERK) [P-ERK] of 0.02 nM.
